These results are taken from paper PMC12356879 (Nature Communications, 2025).

The target of data set [1] is post-translational lamin construct with a single N-terminal cysteine (pJS81) (human) (UniProt P02545). In words: SEC.
The data set “optical tweezers” concerns the molecule itself. In words: optical tweezers.

Broadly, the stoichiometry N is a count of units in the complex or per binding partner. With “post-translational lamin construct with a single N-terminal cysteine (pJS81) (from UniProt P02545 31-311) (domain or fragment)”, in data set [1], the stoichiometry N amounted to 2.

B1: LMNA_(31-311) ribosome-bound nascent chain (domain or fragment)
chain: EKEDLQELNDRLAVYIDRVRSLETENAGLRLRITESEEVVSREVSGIKAAYEAELGDARKTLDSVAKERARLQLELSKVREEFKELKARNTKKEGDLIAAQARLKDLEALLNSKEAALSTALSEKRTLEGELHDLRGQVAKLEAALGEAKKQLQDEMLRRVDAENRLQTMKEELDFQKNIYSEELRETKRRHETRLVEIDNGKQREFESRLADALQELRAQHEDQVEQYKKELEKTYSAKLDNARQSAERNSNLVGAAHEELQQSRIRIDSLSAQLSQLQK
In the data set “optical tweezers”, B1 had a mean rupture force of 14 pN.

B2: LMNA_(31-123) ribosome-bound nascent chain (domain or fragment)
chain: EKEDLQELNDRLAVYIDRVRSLETENAGLRLRITESEEVVSREVSGIKAAYEAELGDARKTLDSVAKERARLQLELSKVREEFKELKARNTKK
In turn, B2 came in with a mean rupture force in the data set “optical tweezers” of 7 pN.
